Molecular target: FcγRIIIa on human PBMC effector cells (heterozygous V158/F158 or allotype not stated) (human) (UniProt P08637)
Assay: cell-based or functional assay

FcγRIIIa on human PBMC effector cells (heterozygous V158/F158 or allotype not stated) (human), sequence (P08637 17-254): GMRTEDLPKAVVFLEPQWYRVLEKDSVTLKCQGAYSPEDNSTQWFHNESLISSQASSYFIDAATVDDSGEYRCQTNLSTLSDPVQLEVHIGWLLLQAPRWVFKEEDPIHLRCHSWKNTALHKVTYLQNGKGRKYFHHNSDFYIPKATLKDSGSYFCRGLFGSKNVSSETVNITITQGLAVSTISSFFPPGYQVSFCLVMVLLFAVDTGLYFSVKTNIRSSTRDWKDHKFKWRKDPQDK

S239D/I332E alemtuzumab (antibody)
ADCC EC50, DoHH-2 target cells, human PBMCs: 3 ng/mL | ADCC log(EC50), DoHH-2 target cells, human PBMCs: 0.49 log(ng/ml)

V264I/I332E alemtuzumab (antibody)
ADCC EC50, DoHH-2 target cells, human PBMCs: 4 ng/mL | ADCC log(EC50), DoHH-2 target cells, human PBMCs: 0.6 log(ng/ml)
